The text below walks through data of patent US20170088600A1 (published 2017).

Positions count from the first letter of the chain named. Numbers in names are those of the source.

In test [1] the target is T1, TRAIL (TNFSF10) ectodomain (UniProt P50591 39-281, limits assumed).
T1 construct: extracellular domain; also called endogenous TRAIL; TRAIL ectodomain
The test can be described thus: SPR, mutant TRAIL-R2-Fc captured, TRAIL as analyte.

Test [2] concerns the target T2, mouse TRAIL expressed on transiently transfected 293T cells (mouse, UniProt P50592 1-291).
T2 construct: whole, on cells; also called mTRAIL; mouse (m) TRAIL
T2 sequence (looked up): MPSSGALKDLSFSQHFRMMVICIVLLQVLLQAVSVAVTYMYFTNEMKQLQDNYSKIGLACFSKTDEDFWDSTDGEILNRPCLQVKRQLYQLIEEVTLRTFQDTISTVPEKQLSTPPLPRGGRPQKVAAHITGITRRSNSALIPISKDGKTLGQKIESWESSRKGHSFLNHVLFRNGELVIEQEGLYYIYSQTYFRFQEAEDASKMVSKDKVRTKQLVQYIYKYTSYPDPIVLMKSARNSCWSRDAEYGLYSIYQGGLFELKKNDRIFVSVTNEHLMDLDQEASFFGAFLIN
The test is described as follows: flow cytometry on 293T cells transfected with mouse TRAIL. (In general: A flow cytometer gives signals particle by particle.)

T1 sequence (P50591 39-281 limits assumed): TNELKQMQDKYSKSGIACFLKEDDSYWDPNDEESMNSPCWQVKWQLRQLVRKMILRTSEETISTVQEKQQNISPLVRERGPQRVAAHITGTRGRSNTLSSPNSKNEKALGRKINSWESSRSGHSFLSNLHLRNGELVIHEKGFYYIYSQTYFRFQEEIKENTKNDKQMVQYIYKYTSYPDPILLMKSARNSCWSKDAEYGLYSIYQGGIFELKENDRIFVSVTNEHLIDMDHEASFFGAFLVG

B1: TRAIL-R2-Fc K155A (Fc fusion, human, not shown: a dimerising Fc or GST)
chain: QQDLAPQQRAAPQQKRSSPSEGLCPPGHHISEDGRDCISCKYGQDYSTHWNDLLFCLRCTRCDSGEVELSPCTTTRNTVCQCEEGTFREEDSPEMCRACRTGCPRGMVKVGDCTPWSDIECVHKESGLVPRGS
notes: range 58-184
Consider B1, for which, in test [1], binding was put at a Kd of 39.7 nM; the koff (usually a measure of how fast the partners let go of each other) amounted to 0.000138 s⁻¹; the kon (as a rule, the second-order rate constant of association) stood at 3480 M⁻¹ s⁻¹.

B2: TRAIL-R2-Fc P150A (Fc fusion, human, not shown: a dimerising Fc or GST)
chain: B1 chain with P93A, A98K
notes: range 58-184
Consider B2, for which, in test [1], binding was put at a Kd of 4.29 nM, the koff stood at 9.02e-06 s⁻¹ and the kon was 2100 M⁻¹ s⁻¹.

B3: TRAIL-R2-Fc Y103A/R133A (Fc fusion, human, not shown: a dimerising Fc or GST)
chain: B1 chain with Y46A, R76A, A98K
notes: range 58-184; also called Y103/R133
Take B3: the binding result in test [1] is reported as “no binding”.

B4: TRAIL-R2-Fc F112A (Fc fusion, human, not shown: a dimerising Fc or GST)
chain: B1 chain with F55A, A98K
notes: range 58-184
With B4, in test [1], the Kd (commonly the constant that tells how readily two partners part at equilibrium) worked out at 3.94 nM, the koff stood at 9.86e-06 s⁻¹ and the kon came out at 2500 M⁻¹ s⁻¹.

B5: TRAIL-R2-Fc Y103A/N134A (Fc fusion, human, not shown: a dimerising Fc or GST)
chain: B1 chain with Y46A, N77A, A98K
notes: range 58-184; also called Y103/N134
As for B5, the binding result in test [1] is given as “no binding”.

B6: TRAIL-R2-Fc L110A/L114A (Fc fusion, human, not shown: a dimerising Fc or GST)
chain: B1 chain with L53A, L57A, A98K
notes: range 58-184; also called L110/L114
Regarding B6, the binding result in test [1] is listed as “no binding”.

B7: TRAIL-R2-Fc M152A/R154A/K155A (Fc fusion, human, not shown: a dimerising Fc or GST)
chain: B1 chain with M95A, R97A
notes: range 58-184; also called M152/R154/K155
B7: the binding result in test [1] was “no binding”.

B8: TRAIL-R2-Fc D148A (Fc fusion, human, not shown: a dimerising Fc or GST)
chain: B1 chain with D91A, A98K
notes: range 58-184
In test [1], B8 gave a Kd of 4.48 nM, a koff of 3.58e-05 s⁻¹ and a kon of 8000 M⁻¹ s⁻¹.

B9: TRAIL-R2-Fc V167A (Fc fusion, human, not shown: a dimerising Fc or GST)
chain: B1 chain with A98K, V110A
notes: range 58-184
As to B9, in test [1], the Kd was 4.35 nM, the koff stood at 9.57e-06 s⁻¹ and the kon was found to be 2200 M⁻¹ s⁻¹.

B10: TRAIL-R2-Fc M152A (Fc fusion, human, not shown: a dimerising Fc or GST)
chain: B1 chain with M95A, A98K
notes: range 58-184
In test [1], B10 registered a Kd of 202 nM, a koff of 0.000678 s⁻¹ and a kon of 3350 M⁻¹ s⁻¹.

B11: TRAIL-R2-Fc E151A (Fc fusion, human, not shown: a dimerising Fc or GST)
chain: B1 chain with E94A, A98K
notes: range 58-184
With B11, the binding result in test [1] is “no binding (tested: up to 1 µM ligand)”.

B12: mouse TRAIL-R2:Fc (extracellular domain of mouse TRAIL-R2 fused to human IgG constant domain) (Fc fusion, UniProt Q9QZM4 53-180, looked up)
chain: NPAHNRPAGLQRPEESPSRGPCLAGQYLSEGNCKPCREGIDYTSHSNHSLDSCILCTVCKEDKVVETRCNITTNTVCRCKPGTFEDKDSPEICQSCSNCTDGEEELTSCTPRENRKCVSKTAWASWHK
notes: extracellular domain; also called mTRAIL-R2:Fc; not shown: printed only as the human IgG VH constant domain; subclass, limits and linker no
In the case of B12, the binding result in test [2] is listed as “binds”.
